Measured values: US20060172938A1 (RESEARCH FOUNDATION OF STATE UNIVERSITY OF NEW YORK, published 2006)
Where no end group is shown, it is not given here.

Key:
[1] = target: T1, Native seprase isolated from LOX cells (human (isolated from the human melanoma …, UniProt Q12884 1-760)); experiment: phage display panning and phage ELISA on seprase-coated wells (positive clone: OD405 experiment/OD405 control >3.0); peptide displayed on phage
T1 construct: Native enzyme purified from LOX cells; used as bait for phage panning and in the prolyl dipeptidase and gelatinase assays; also called purified seprase; seprase/FAP
T1 sequence (looked up): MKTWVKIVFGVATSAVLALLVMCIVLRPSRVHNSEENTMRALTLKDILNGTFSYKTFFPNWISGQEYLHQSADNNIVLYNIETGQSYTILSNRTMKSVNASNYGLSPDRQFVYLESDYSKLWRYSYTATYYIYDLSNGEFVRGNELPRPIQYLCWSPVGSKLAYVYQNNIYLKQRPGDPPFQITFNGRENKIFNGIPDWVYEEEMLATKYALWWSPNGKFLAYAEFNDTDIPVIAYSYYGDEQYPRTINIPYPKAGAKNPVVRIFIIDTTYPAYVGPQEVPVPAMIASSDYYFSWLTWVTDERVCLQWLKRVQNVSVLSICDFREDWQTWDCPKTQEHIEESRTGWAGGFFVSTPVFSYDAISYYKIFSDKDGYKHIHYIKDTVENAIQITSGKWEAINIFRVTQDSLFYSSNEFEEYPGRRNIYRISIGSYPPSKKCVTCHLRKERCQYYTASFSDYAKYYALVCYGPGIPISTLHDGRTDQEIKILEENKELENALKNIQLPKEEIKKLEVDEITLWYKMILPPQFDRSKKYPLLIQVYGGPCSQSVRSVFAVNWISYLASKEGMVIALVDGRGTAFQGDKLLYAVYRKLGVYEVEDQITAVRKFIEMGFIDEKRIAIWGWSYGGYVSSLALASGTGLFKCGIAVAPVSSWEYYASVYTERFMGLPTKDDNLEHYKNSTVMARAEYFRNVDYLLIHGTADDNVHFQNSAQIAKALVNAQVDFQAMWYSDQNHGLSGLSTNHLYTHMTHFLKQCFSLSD

[2] = target: T2, Seprase on seprase-expressing LOX cells (human (human melanoma cell line LOX), UniProt Q12884 1-760); experiment: ELISA and immunofluorescence on seprase-expressing LOX cells
T2 construct: whole, on cells
T2 sequence (looked up): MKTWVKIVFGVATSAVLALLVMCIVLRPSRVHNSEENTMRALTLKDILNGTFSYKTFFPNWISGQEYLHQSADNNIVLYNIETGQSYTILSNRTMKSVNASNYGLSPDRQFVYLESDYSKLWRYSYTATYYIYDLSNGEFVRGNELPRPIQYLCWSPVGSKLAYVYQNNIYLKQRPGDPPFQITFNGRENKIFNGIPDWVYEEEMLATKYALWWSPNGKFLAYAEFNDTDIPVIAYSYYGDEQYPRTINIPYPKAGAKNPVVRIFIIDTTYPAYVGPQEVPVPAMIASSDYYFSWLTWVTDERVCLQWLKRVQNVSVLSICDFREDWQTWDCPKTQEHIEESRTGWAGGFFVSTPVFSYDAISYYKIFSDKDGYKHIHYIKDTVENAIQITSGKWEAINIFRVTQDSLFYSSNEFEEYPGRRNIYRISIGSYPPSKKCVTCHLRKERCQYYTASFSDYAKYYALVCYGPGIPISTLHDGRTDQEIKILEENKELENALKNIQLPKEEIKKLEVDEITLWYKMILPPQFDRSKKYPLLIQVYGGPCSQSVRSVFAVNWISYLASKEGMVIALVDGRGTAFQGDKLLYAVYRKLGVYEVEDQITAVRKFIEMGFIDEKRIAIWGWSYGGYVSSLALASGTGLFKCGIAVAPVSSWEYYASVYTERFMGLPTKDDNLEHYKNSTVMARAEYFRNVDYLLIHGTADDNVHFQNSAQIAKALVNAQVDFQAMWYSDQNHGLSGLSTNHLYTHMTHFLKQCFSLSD

[3] = target: T2, Seprase on seprase-expressing LOX cells; experiment: ELISA and immunofluorescence on LOX cells
[4] = target: DPP4; experiment: enzyme inhibition kinetics, prolyl peptidase activity of DPP4 with Gly-Pro-pNA, time progress curves (FIG. 1E)
[5] = target: T1, Native seprase isolated from LOX cells; experiment: enzyme inhibition kinetics, prolyl dipeptidase activity of seprase with Gly-Pro-pNA, time progress curves (FIG. 1D)
[6] = target: T1, Native seprase isolated from LOX cells; experiment: inhibition kinetic analysis; reference is DPP4
[7] = target: T2, Seprase on seprase-expressing LOX cells; experiment: cell-based or functional assay
[8] = target: T1, Native seprase isolated from LOX cells; experiment: cell-based or functional assay

Sequence of DPP4 (P27487 whole entry): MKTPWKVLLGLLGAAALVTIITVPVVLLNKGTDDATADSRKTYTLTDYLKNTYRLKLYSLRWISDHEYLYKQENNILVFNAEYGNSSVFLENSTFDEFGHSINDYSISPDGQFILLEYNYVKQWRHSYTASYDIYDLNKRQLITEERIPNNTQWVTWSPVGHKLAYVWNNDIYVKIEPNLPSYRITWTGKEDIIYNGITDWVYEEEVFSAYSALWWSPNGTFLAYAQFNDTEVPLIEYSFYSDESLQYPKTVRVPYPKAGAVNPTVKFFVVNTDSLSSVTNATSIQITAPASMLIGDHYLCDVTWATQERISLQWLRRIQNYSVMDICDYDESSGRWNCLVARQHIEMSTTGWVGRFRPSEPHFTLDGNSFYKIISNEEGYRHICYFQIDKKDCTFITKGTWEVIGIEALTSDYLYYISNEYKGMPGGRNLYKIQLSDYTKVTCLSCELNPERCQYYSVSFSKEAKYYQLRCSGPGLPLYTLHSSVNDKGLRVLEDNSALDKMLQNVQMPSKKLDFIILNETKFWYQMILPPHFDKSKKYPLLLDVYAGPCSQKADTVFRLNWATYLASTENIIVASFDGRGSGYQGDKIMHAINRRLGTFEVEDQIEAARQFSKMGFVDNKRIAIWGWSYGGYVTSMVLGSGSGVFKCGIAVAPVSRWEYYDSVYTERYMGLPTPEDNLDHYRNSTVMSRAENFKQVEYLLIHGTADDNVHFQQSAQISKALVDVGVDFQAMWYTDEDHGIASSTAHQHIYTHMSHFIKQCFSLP

B1: DLDYLSKF (peptide)
peptide: DLDYLSKF
notes: tested as a synthetic linear peptide in the enzyme assays
B1: binds [1].

GGAGDMWERVSRG: binds [2].

RKISASEFDRPLR (Control) [control peptide RKISASEFDRPLR]: no binding [3].

CDMWERVSRC (also: cyclic peptide, mode of cyclisation not given here) [cyclic peptide CDMWERVSRC] was tested, and the Ki [4] was 40 µM, the Ki [5] was 0.4 µM and the “fold more effective against seprase than DPP4” value [6] was 100 times. The “IC50 on the overall collagen degradation by LOX cells (Bodipy FL C5 labelled type I collagen films)” value [7] was about 200 µM and the “IC50, inhibition of the gelatinolytic activity of seprase (DQ-gelatin assay)” value [8] was under 10 µM.

B2: DMWERVSR (peptide)
peptide: DMWERVSR
notes: as for B1
B2: binds [1].
